Laboratory results from US7115576B2, “Water-soluble antibiotic comprising an amino sugar, in the form of a polysaccharide conjugate” (Fresenius Kabi Deutschland GmbH, priority 2001, dated 2006).

Legend:
Water solubility = format: physicochemical
erythrocytes = test: Haemolysis comparison test (extinction of supernatant at 576 nm); format: cell-based, human; conditions: 37°C, 20 min
Description: Of this stock solution, three dilutions were produced in accordance with Table 2 and their haemolytic action also investigated.
Production of the erythrocyte suspension: freshly taken human blood was diluted with approximately 5 times the volume of sterile 0.9% NaCl solution (batch designation: 9055A64 produced by the company Braun Melsungen) and centrifuged for 5 minutes at a relative centrifugal acceleration of 2000. The supernatant solution was then drawn off and the sedimented erythrocytes treated twice more in the same way.
The erythrocytes thus washed were counted in a Neubauer counting chamber and—where necessary—diluted again with sterile 0.9% NaCl solution to a final concentration of approx. 5·10^8 erythrocytes per ml. This suspension is according to DIN standard usable at room temperature for up to 6 hours.
Haemolysis comparison test: 5 ml of the solution to be tested was mixed with 1 ml of the above erythrocyte suspension, transferred to a cleaned centrifuge tube and incubated in a water bath at 37±1° C. for 20 minutes. Centrifuging was then performed for 5 minutes at a relative centrifugal acceleration of 2000.
The extinction of the supernatant liquid was measured. 5 ml of the 0.9% NaCl solution and the 5% glucose solution, which were mixed with 1 ml of the erythrocyte suspension, also incubated at 37±1° C. for 20 minutes and then centrifuged as above, served as negative controls.
For the test for haemolysis, the extinctions of the respective supernatants were measured in a photometer against the negative controls at a wavelength of 576 nm using a cuvette 10 mm in thickness. Owing to the differing stainings of the solutions, the extinction was also measured for the purpose of comparing the solutions without erythrocyte suspension.

Compound: C[C@@H]1[C@H](O)[C@@H](C)/C=C/C=C/C=C/C=C/C=C/C=C/C=C/[C@H](O[C@@H]2O[C@H](C)[C@@H](O)[C@H](N)[C@@H]2O)C[C@@H]2O[C@](O)(C[C@@H](O)C[C@@H](O)[C@H](O)CC[C@@H](O)C[C@@H](O)CC(=O)O[C@H]1C)C[C@H](O)[C@H]2C(=O)O [Amphotericin B, reference compound]
- water solubility (Water solubility): virtually insoluble in water

Compound: Amphotericin B-HES Conjugate [Ampho HES]
- Extinction 576 nm (erythrocytes; amphotericin B 0.1 mg/ml in the test batch (0.12 mg/ml in the solution)): 0.027
- Extinction 576 nm (erythrocytes; amphotericin B 0.2 mg/ml in the test batch (0.24 mg/ml in the solution)): 0.061
- Extinction 576 nm (erythrocytes; amphotericin B 0.4 mg/ml in the test batch (0.48 mg/ml in the solution)): 0.274*)
- Extinction 576 nm (erythrocytes; amphotericin B 0.83 mg/ml in the test batch (1.00 mg/ml stock solution)): 2.452*)**)
- water solubility (Water solubility): > 0.1 g/5 ml H2O
